Assay results from US12098176B2, “Keratin BD-4, preparation method, and pharmaceutical composition and use thereof” (Institute of Materia Medica, Chinese Academy of Medical …, priority 2019, dated 2024).

How the values were obtained:
[1] = system: yeast-induced fever model in rats; experiment: Yeast-induced fever model in SD rats; format: in vivo, rat; conditions: for Body temperature 2 hours after modeling: 2 h after 20% yeast s.c.; for Body temperature 4 hours after modeling: 4 h after 20% yeast s.c.; for Body temperature 6 hours after modeling: 6 h after 20% yeast s.c.; for Body temperature 8 hours after modeling: 8 h after 20% yeast s.c.; for Effect on increase in body temperature of model rats: vs model group P<0.05
Description: Experimental example 1 The pharmacodynamic test of protein BD-4 (the protein in Example 4) on the fever model of SD rats induced by yeast
• Normal control group; • Model group: yeast fever model; • Positive control group: Aspirin 300 mg/kg group; • Protein BD-4, 10 mg/kg group, 50 mg/kg group. Method:
Preparation of experimental animals: After the experimental animals adapt to the experimental environment (temperature 22° C.±2° C., relative humidity 50%±2%) for 1 day. Pre-adaptation to measure rectal temperature at 8:00 and 15:00, Rats were fasted and water was taken freely 12 h before experiment. let the animal to empty its feces before measuring the rectal temperature. Apply petroleum jelly to the electronic thermometer probe before each temperature measurement. Insert the rat rectum 2 cm (can be marked at 2 cm to ensure that the depth of each insertion is consistent), and record the body temperature after the reading is stable.
Subcutaneous injection of dry yeast to replicate rat fever model: The body temperature of the rats was measured before modeling. Qualified rats with a body temperature of 36.2-37.3° C. were selected and randomly divided into groups with 8 rats in each group. After oral administration of aspirin and different doses of protein BD-4, 20% yeast suspension (10 ml/kg) was injected subcutaneously immediately, and the normal control group was injected intraperitoneally with an equal volume of normal saline. the rats' body temperature was monitored after 2 hours for a total of 8 hours.
According to the body temperature measured at each time point on the day of the experiment, calculate the mean, standard deviation and standard error of the body temperature of each group of rats. The data of each group was compared with TTEST, and P<0.05 was considered as a significant difference.

[2] = system: PTZ-induced epilepsy in mice; experiment: Pentylenetetrazole (PTZ) induced epilepsy in mice; format: in vivo, mouse; conditions: for Grade IV seizure rate / mortality rate: 10 mice; for Grade IV seizure rate / mortality rate / Number of deaths / Number of Grade IV cases: PTZ 65 mg/kg i.p.; for Number of deaths / Number of Grade IV cases: of 10 mice; for Number of Grade IV cases: 15 min observation; for Level III onset latency / Grade IV onset latency: mean ± SEM; for Grade IV onset latency: no grade IV attack recorded as 900 s
Description: Experiment Grouping: • Model group; • Retigabine 60 mg/kg group; • Protein BD-4, 50 mg/kg group, 200 mg/kg group; Method: Model Preparation and Administration:
Administer once in the afternoon the day before modeling, On the day of modeling, intraperitoneal injection of PTZ-65 mg/kg (modeling agent) 1 hour after gavage of the test drug, the positive drug can be administered once half an hour before modeling. Continue to observe for 15 minutes after injection of PTZ.
Observation index: 1) Seizure condition: Onset time of grade III to grade VI; 2) Death situation
Onset level: Refer to Racine grading standard: Level 0: No response; Grade I: manifested as twitching of facial muscles or the corners of the mouth; Level II: Can nod; Grade III: twitching of one limb; Grade IV: Rigidity or body twitching; Grade V: Generalized epilepsy (Generalized tonic seizures).
Count the number of seizures and deaths in each group of mice in the experiment; Level III and IV incubation period. The incubation period of mice that have not attacked to grade IV is recorded as the maximum of 900 seconds. Chi-square test was used for statistics of the number of cases. Calculate the mean and standard error of the incubation period. Use TTEST to compare the model group with other groups, and P<0.05 is considered as a significant difference.

[3] = system: acetic acid writhing of ICR mice; experiment: Acetic acid writhing test in ICR mice; format: in vivo, mouse; conditions: for Number of twists / Writhing latency: 0.6% acetic acid i.p., within 15 minutes
Description: Experimental example 7 The pharmacodynamic test of protein BD-4 (Example 4 protein) on acetic acid writhing in ICR mice. Animals: male ICR mice; Drugs and reagents: aspirin, physiological saline, glacial acetic acid, protein BD-4. Experiment Grouping:
One day after the experimental animals adapt to the environment, Aspirin 300 mg/kg, protein BD-4 50 mg/kg, 200 mg/kg were given orally one hour in advance, and the administration volume was 10 ml/kg; Then, 0.6% acetic acid solution was injected into the abdominal cavity, and the latency period (seconds) and frequency of writhing in the animal was observed within 15 minutes.
Calculate the mean and standard error of the data in each group. Compared with the model group by TTEST, P<0.05 was considered as statistically different.
0.6% acetic acid solution was injected into the abdominal cavity of mice, which caused deep and large area and long-term painful stimulation, causing the mice to writhe (the abdomen was contracted into an “S” shape, the trunk and hind legs were stretched, the buttocks were raised and the hips Row). The incubation time and the number of times the mice began to writhe were used as the pain response index to determine whether the test sample had analgesic effect. […] Compared with the model group, P<0.05, which is statistically significant.

[4] = system: phenol red excretion in mice; experiment: Expectorant test, phenol red excretion method in mice; format: in vivo, mouse; conditions: for Phenol red excretion: X ± SEM
Description: Experimental example 5 The pharmacodynamic test of protein BD-4 (Example 4 protein) on the expectorant of phenol red excretion method in mice.
• Solvent control group; • Mucosultan 30 mg/kg group; • Protein BD-4, 20 mg/kg group, 50 mg/kg group. Method: Model Preparation and Administration:
The animals were fasted and watered 16 hours before the experiment. Orally administered Mucosultan and different doses of protein BD-4 (administration volume 10 ml/kg) in groups, and the solvent control group was given the same volume of distilled water. One hour later, 2.5% phenol red solution was injected intraperitoneally, Kill the mouse by removing the neck after 30 minutes. Take the trachea from below the thyroid cartilage to the branch of the trachea. Put the trachea into 3 ml 5% NaHCO3 solution and let it stand for 3 hours. Take 1 ml of the supernatant and centrifuge at 3000 rpm for 5 minutes. Measure and record the absorbance at 546 nm. According to the standard curve of phenol red, the excretion of phenol red was calculated.
Record the time point of oral administration, the time point of intraperitoneal injection of 2.5% phenol red solution, and the time point of tracheal extraction respectively; The absorbance of each group of samples was measured by the microplate reader at 546 nm, Calculate the excretion of phenol red according to the standard curve of phenol red. Calculate the mean and standard error of the data in each group, use TTEST to compare the solvent control group with other groups, and P<0.05 is considered as a significant difference.

B1: BD-4: recombinant keratin, amino acid sequence SEQ ID NO: 1, expressed in E. coli; the protein of Example 4 was tested (protein, listed as Bos taurus)
chain: MSYSCCLPNLSFRSSCSSRPCVPSSCCGTTLPGACNIPANVGSCNWFCEGSFNGSEKETMQFLNDRLASYLEKVRQLERDNAELESRILERSQQQEPLVCPNYQSYFRTIEELQQKILCSKSENARLVVQIDNAKLASDDFRTKYETEVSLRQLVEADLNGLRRILDELTLCKSDLEARVESLKEELICLKQNHEQEVNTLRSQLGDRLNVEVDAAPTVDLNRVLNETRAQYEALVETNRRDVEEWYIRQTEELNKQVVSSSEQLQSYQAEIIELRRTVNALEVELQAQHNLRDSLENTLTETEARYSCQLAQVQGLIGNVESQLAEIRSDLERQNQEYQVLLDVRARLECEINTYRGLLDSEDCKLPCNPCATTNACERPCISNPCVSRARCGPCNTFVH
B1 was tested, and the “Body temperature 2 hours after modeling” value ([1]; 10 mg/kg oral) was 36.7 ± 0.1 °C, the “Body temperature 4 hours after modeling” value ([1]; 10 mg/kg oral) was 37.1 ± 0.1 °C and the “Body temperature 6 hours after modeling” value ([1]; 10 mg/kg oral) was 37.6 ± 0.1 °C. The “Body temperature 8 hours after modeling” value ([1]; 10 mg/kg oral) was 37.6 ± 0.2 °C, the “Effect on increase in body temperature of model rats” value ([1]; 10 mg/kg, 4 hour after modeling) was “significantly inhibit the increase in body temperature” and the “Body temperature 2 hours after modeling” value ([1]; 50 mg/kg oral) was 36.6 ± 0.1 °C. For the same molecule, the “Body temperature 4 hours after modeling” value ([1]; 50 mg/kg oral) was 37.4 ± 0.1 °C, the “Body temperature 6 hours after modeling” value ([1]; 50 mg/kg oral) was 37.5 ± 0.1 °C and the “Body temperature 8 hours after modeling” value ([1]; 50 mg/kg oral) was 37.6 ± 0.1 °C. For the same molecule, the “Effect on increase in body temperature of model rats” value ([1]; 50 mg/kg, 8 hours after modeling) was “significantly inhibit the increase in body temperature”, the “Epilepsy grade III incubation period, comparison with model group” value ([2]; 50 mg/kg) was “statistically different from the model group” and the “Grade IV seizure rate” value ([2]; 50 mg/kg gavage) was 80%. The mortality rate ([2]; 50 mg/kg gavage) was 10%, the Number of deaths ([2]; 50 mg/kg gavage) was 1 and the “Number of Grade IV cases” value ([2]; 50 mg/kg gavage) was 8. For the same molecule, the “Level III onset latency” value ([2]; 50 mg/kg) was 91 ± 12 s, the “Grade IV onset latency” value ([2]; 50 mg/kg) was 308 ± 103 s and the “Epilepsy grade III incubation period, comparison with model group” value ([2]; 200 mg/kg) was “statistically different from the model group”. The “Grade IV seizure rate” value ([2]; 200 mg/kg gavage) was 70%, the mortality rate ([2]; 200 mg/kg gavage) was 0 and the Number of deaths ([2]; 200 mg/kg gavage) was 0. The “Number of Grade IV cases” value ([2]; 200 mg/kg gavage) was 7, the “Level III onset latency” value ([2]; 200 mg/kg) was 89 ± 8 s and the “Grade IV onset latency” value ([2]; 200 mg/kg) was 493 ± 113 s. For the same molecule, the Number of twists ([3]; 50 mg/kg oral) was 16.9 ± 3.7 times, the Writhing latency ([3]; 50 mg/kg oral) was 315.2 ± 66.3 s and the “Number of writhing times vs model group” value ([3]; 50 mg/kg, P<0.05) was “significantly reduce the number of writhing times”. It also gave a Number of twists ([3]; 200 mg/kg oral) of 25.1 ± 3.3 times, a Writhing latency ([3]; 200 mg/kg oral) of 220.1 ± 16.6 s and a Phenol red excretion ([4]; 20 mg/kg oral) of 0.898 ± 0.076 µg/mL. For the same molecule, the “Phenol red excretion vs solvent control group” value ([4]; 20 mg/kg, P<0.05) was “significantly increased” and the Phenol red excretion ([4]; 50 mg/kg oral) was 0.775 ± 0.101 µg/mL.
